# Measurements as given in US12171803B2, “Methods of CD40 and toll like receptor immune activation” (MEMGEN, INC., priority 2017, dated 2024).
# B1: ISF35: chimeric CD154 polypeptide; domain IV of human CD154 linked to domains I, II and III of human CD154; SEQ ID NO 6 (protein)
# chain: MIETYNQTSPRSAATGLPISMKIFMYLLTVFLITQMIGSALFAVYLHRRLDKIEDERNLHEDFVFMKTIQRCNTGERSLSLLNCEEIKSQFEGFVKDIMLNKEETKKDEDPQIAAHVVSEANSNAASVLQWAKKGYYTMKSNLVTLENGKQLTVKRQGLYYIYAQVTFCSNREASSQAPFIVGLWLKPSSGSERILLKAANTHSSSQLCEQQSIHLGGVFELQPGASVFVNVTDPSQVSHGTGFTSFGLLKL
# modifications: ISF35 (MEM40)
# System: B16.F10 tumors
# Experiment: Tumor growth of B16.F10 tumors subcutaneously implanted in mice
# Type: in vivo
# Details: ISF35 combination therapy versus agonist CD40 antibody combination therapy; B16.F10 tumors subcutaneously implanted in C54/BL6 mice
# From the text: Tumor growth curves of B16.F10 tumors subcutaneously implanted in C54/BL6 mice. Individual animal tumor growth curves are shown.
molecule,measurement,value
B1,Tumor growth curves (activity of combination therapy),Superior activity
